In publication PMC3185416:
Like-named read-outs stand apart in the source and are kept apart here.

Columns and labels:
[1] = biological target: Smad4 MH1;Smad3 MH1 (mouse;mouse?, UniProt P97471;Q8BUN5 1-140;1-143, |); assay: EMSA
[2] = biological target: Smad4 MH1;Smad2dE3 MH1 (mouse;mouse?, UniProt P97471;Q62432-2 1-140;1-153, |del79-108); assay: EMSA
[3] = biological target: Smad4 MH1;Smad1 MH1 (mouse;mouse?, UniProt P97471;P70340 1-140;1-136, |); assay: EMSA
[4] = biological target: T1, Smad4 MH1 (mouse, UniProt P97471 1-140); assay: EMSA
[5] = biological target: Smad3 MH1 99HSHH102/HKN (UniProt Q8BUN5 1-97+=HKN+102-143, internal_change); assay: EMSA
[6] = biological target: Smad3 MH1 S100K (UniProt Q8BUN5 1-143, S99K); assay: EMSA
[7] = biological target: Smad3 MH1 K33R (UniProt Q8BUN5 1-143, K33R); assay: EMSA
[8] = biological target: Smad4 MH1 K106S (mouse, UniProt P97471 1-140, K106S); assay: EMSA
[9] = biological target: Smad4 MH1 AG/SH (mouse, UniProt P97471 1-140, A85S;G86H); assay: EMSA
[10] = biological target: Smad4 MH1 105HKN107/HSHH (mouse, UniProt P97471 1-104+=HSHH+108-140, internal_change); assay: EMSA
[11] = biological target: Smad4 MH1 R38K (mouse, UniProt P97471 1-140, R38K); assay: EMSA
[12] = biological target: T2, Smad4 MH1dN8 (mouse, UniProt P97471 9-140); assay: EMSA
[13] = biological target: Smad4 MH1dN3 (mouse, UniProt P97471 4-140); assay: EMSA
[14] = biological target: Smad4 MH1dN12 (mouse, UniProt P97471 13-140); assay: EMSA
[15] = biological target: Smad4 MH1dN10 (mouse, UniProt P97471 11-140); assay: EMSA
[16] = biological target: Smad3 MH1 (UniProt Q8BUN5 1-143); assay: EMSA
[17] = biological target: Smad2dE3 MH1 (UniProt Q62432-2 1-153, del79-108); assay: EMSA
[18] = biological target: Smad1 MH1 (UniProt P70340 1-136); assay: EMSA
[19] = biological target: T1, Smad4 MH1; assay: EMSA; remark: listed apart in the source
[20] = biological target: T2, Smad4 MH1dN8; assay: crystal structure
[21] = biological target: T1, Smad4 MH1; assay: EMSA; remark: listed apart in the source

Measured: binding result

Smad1 MH1, sequence (P70340 1-136): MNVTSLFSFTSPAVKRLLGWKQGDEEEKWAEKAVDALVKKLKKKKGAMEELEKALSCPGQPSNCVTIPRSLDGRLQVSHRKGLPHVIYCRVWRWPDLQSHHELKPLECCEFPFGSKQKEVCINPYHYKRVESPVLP

B1: palindromic SBE (EMSA) (dsDNA)
DNA 1: TCAGTCTAGACATAC
DNA 2: GTATGTCTAGACTGA
not listed: [19] | [20] | [21]
binds: all other assays above

B2: JunB promoter element (dsDNA)
DNA 1: GACAGTCTGTCTGCC
DNA 2: GGCAGACAGACTGTC
binds: [19]

B3: palindromic SBE 16-bp (crystal) (dsDNA)
DNA 1: TGCAGTCTAGACTGCA
DNA 2: TGCAGTCTAGACTGCA
binds: [20] | [21]

B4: OPN1 promoter element (dsDNA)
DNA 1: TGGAGACTGTCTGGA
DNA 2: TCCAGACAGTCTCCA
binds: [19]
